In publication PMC6050341, “Direct observation of DNA target searching and cleavage by CRISPR-Cas12a”:
Positions count from the first letter of the chain named.

Legend:
AsCas12a WT [1] = target: T1, AsCas12a WT (Acidaminococcus sp., UniProt U2UMQ6 1-1307); test: single-molecule FRET; 10 mM Mg2+; 20 nM RNP; transient S1 lifetime 0.13 +/- 0.01 s; stable stage II lifetime 94 s; smFRET: 10 mM Tris-HCl pH 8.0, 100 mM NaCl (100 mM KCl in Figs 4, 5), 10 mM MgCl2, 1 mM DTT, oxygen scavenger, 37 C; SpCas9 in NEB buffer 3
[2] = target: T2, dAsCas12a (catalytically dead) (Acidaminococcus sp., UniProt U2UMQ6 1-1307, E993A); test: single-molecule FRET; 10 mM Mg2+; 100 mM KCl; no specific binding events (t < 30 ms); smFRET: 10 mM Tris-HCl pH 8.0, 100 mM NaCl (100 mM KCl in Figs 4, 5), 10 mM MgCl2, 1 mM DTT, oxygen scavenger, 37 C; SpCas9 in NEB buffer 3; settings: protein: recombinant; tags: His tag implied (pET28b, Ni-NTA); label: crRNA 3' Cy5; DNA Cy3, 5' biotin; DNA 5' overhang 2 nt
[3] = target: T2, dAsCas12a (catalytically dead); test: single-molecule FRET; 10 mM Mg2+; stable binding reached; smFRET: 10 mM Tris-HCl pH 8.0, 100 mM NaCl (100 mM KCl in Figs 4, 5), 10 mM MgCl2, 1 mM DTT, oxygen scavenger, 37 C; SpCas9 in NEB buffer 3; settings: protein: recombinant; tags: His tag implied (pET28b, Ni-NTA); label: crRNA 3' Cy5; DNA Cy3, 5' biotin; DNA 5' overhang 2 nt
AsCas12a WT [4] = target: T1, AsCas12a WT; test: single-molecule FRET; 10 mM Mg2+; 10 nM protein, 20 nM crRNA; smFRET: 10 mM Tris-HCl pH 8.0, 100 mM NaCl (100 mM KCl in Figs 4, 5), 10 mM MgCl2, 1 mM DTT, oxygen scavenger, 37 C; SpCas9 in NEB buffer 3
AsCas12a WT [5] = target: T1, AsCas12a WT; test: single-particle tracking (TIRF); loose binding; drift rate rises with flow; smFRET: 10 mM Tris-HCl pH 8.0, 100 mM NaCl (100 mM KCl in Figs 4, 5), 10 mM MgCl2, 1 mM DTT, oxygen scavenger, 37 C; SpCas9 in NEB buffer 3
AsCas12a WT [6] = target: T1, AsCas12a WT; test: single-molecule FRET; 5 nM AsCas12a, 10 nM crRNA; no stable binding, only short events; smFRET: 10 mM Tris-HCl pH 8.0, 100 mM NaCl (100 mM KCl in Figs 4, 5), 10 mM MgCl2, 1 mM DTT, oxygen scavenger, 37 C; SpCas9 in NEB buffer 3
AsCas12a WT [7] = target: T1, AsCas12a WT; test: single-particle tracking (TIRF); 1D diffusion, then stable stall at target about 50 s; smFRET: 10 mM Tris-HCl pH 8.0, 100 mM NaCl (100 mM KCl in Figs 4, 5), 10 mM MgCl2, 1 mM DTT, oxygen scavenger, 37 C; SpCas9 in NEB buffer 3

B1: DNMT1 crRNA + target DNA WT (Fig 2) (mixed)
RNA: AAUUUCUACUCUUGUAGAUCUGAUGGUCCAUGUCUGUUACUC
DNA 1: TTTTTTCACTTGACAGGCGAGTAACAGACATGGACCATCAGGAAACATTAACGTACT
DNA 2: AGTACGTTAATGTTTCCTGATGGTCCATGTCTGTTACTCGCCTGTCAAGTG
modifications: internal amino-dT for dye
AsCas12a WT [1]
  binding result: binds

B2: DNMT1 crRNA + 0 match DNA (mixed)
RNA: B1 RNA
DNA 1: TTCACTTGACAGGCACTCGTCTCAACGCACACTGATAGAAACATACACGTACT
DNA 2: AGTACGTGTATGTTTCTATCAGTGTGCGTTGAGACGAGTGCCTGTCAAGTG
[2]
  binding result: no binding

B3: DNMT1 crRNA + 17 match DNA (mixed)
RNA: B1 RNA
DNA 1: TTCACTTGACAGGCACTCGTCAGACATGGACCATCAGGAAACATTAACGTACT
DNA 2: B1 DNA 2 with T34A, T35C, A36G, C37A, T38G, C39T
[3]
  binding result: binds

B4: DNMT1 crRNA + target WT (Fig 5) (mixed)
RNA: B1 RNA
DNA 1: GGATCTCTTAAGTCGTTGAGTAACAGACATGGACCATCAGGAAACACAGTGCAGTATTAGCACTTTTT
DNA 2: GTGCTAATACTGCACTGTGTTTCCTGATGGTCCATGTCTGTTACTCAACGACTTAAGAGATCC
AsCas12a WT [4]
  binding result: binds

## AAUUUCUACUCUUGUAGAUCUGAUGGUCCAUGUCUGUUACUC (mixed) [DNMT1 crRNA + lambda DNA]
AsCas12a WT [5]
  binding result: binds

B5: DNMT1 crRNA + target w/o PAM (mixed)
RNA: B1 RNA
DNA 1: TTCACTTGACAGGCGAGTAACAGACATGGACCATCAGGAAGCATAAGCGTACT
DNA 2: B1 DNA 2 with T7C, A9T, T13C
AsCas12a WT [6]
  binding result: no binding

## AAUUUCUACUCUUGUAGAUACGGUCGAGCGUCAGCGUCCGGG (mixed) [80% crRNA + 21 kb DNA]
AsCas12a WT [7]
  binding result: binds
